Test results from patent US20180274003.

Key:
[1] = target: T1, Peptide 1 YKN-thioglc-V (thiodepsipeptide 1)
T1 chain: YKNXV

[2] = target: T2, Peptide 2 YKN-glc-V (depsipeptide 2)
T2 chain: YKNXV

Peptide 3 YKNHV = target: T3, Peptide 3 YKNHV
T3 chain: YKNHV

Peptide 4 YKNGV = target: T4, Peptide 4 YKNGV
T4 chain: YKNGV

B1: butelase 1 (protein)
chain: VEGTRWAVLVAGSKGYVNYRHQADVCHAYQILKKGGLKDENIIVFMYDDIAYNESNPHPGVIINHPYGSDVYKGVPKDYVGEDINPPNFYAVLLANKSALTGTGSGKVLDSGPNDHVFIYYTDHGGAGVLGMPSKPYIAASDLNDVLKKKHASGTYKSIVFYVESCESGSMFDGLLPEDHNIYVMGASDTGESSWVTYCPLQHPSPPPEYDVCVGDLFSVAWLEDCDVHNLQTETFQQQYEVVKNKTIVALIEDGTHVVQYGDVGLSKQTLFVYMGTDPANDNNTFTDKNSLGTPRKAVSQRDADLIHYWEKYRRAPEGSSRKAEAKKQLREVMAHRMHIDN
- Km [1]: 2760 µM
- kcat [1]: 56.5 s⁻¹
- kcat/Km [1]: 20500 M⁻¹ s⁻¹
- Km [2]: 740 µM
- kcat [2]: 12.4 s⁻¹
- kcat/Km [2]: 16800 M⁻¹ s⁻¹
- Km (Peptide 3 YKNHV): 300 µM
- kcat (Peptide 3 YKNHV): 4.1 s⁻¹
- kcat/Km (Peptide 3 YKNHV): 13500 M⁻¹ s⁻¹
- Km (Peptide 4 YKNGV): 880 µM
- kcat (Peptide 4 YKNGV): 7.9 s⁻¹
- kcat/Km (Peptide 4 YKNGV): 8900 M⁻¹ s⁻¹
